Earlier results on one substance are cited in publication PMC3529988.

For the data set, the target named is E2F TD (Homo sapiens) (UniProt Q01094).
Chain of UniProt Q01094 (Q01094 368-437): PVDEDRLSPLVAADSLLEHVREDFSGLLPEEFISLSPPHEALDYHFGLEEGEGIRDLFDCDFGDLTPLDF

Consider Rb pocket (from UniProt P06400), for which the equilibrium dissociation constant (Kd) was 50 nM.
